{"source": "the DeepSol protein solubility set"}
{"experiment": "soluble on expression in E. coli; label from the status in PepcDB or PDB records"}
{"sequence": "MTVNKITYQNLQEEVYKLTLESGLNVYLIPKPSFKETVGVLTANFGSLHTKYTRNGCVEHYPAGIAHFLEHKLFELDKGQDAATQFTKYGAESNAFTTFDKTSFYFSTISHITNCLDILLDFVLTTNFTEESITKEKDIIKQEIEMYQDDPEYRLYQGVLSNLYPNSPLAFDIAGDYQSISQITLTDLQENHKDFYQLSNMNLVLVGQFSPQEIITYLQKNSHFTSYSQNIDRDSISLEPVIKNNSCHMTVTKPKLAIGYRKSNHMIHGSYLKEKIGLQLFFAMLLGWTSTINQDWYESGQIDDSFDIEIEVHPDFECVIISLDTTEPIAFSTQLRLLLKNALQSSDLTESHLKNVKRELYGDFLRSLDSIENLAMQFVTYLYDGKTMYLDLPSIVEELDLEDVITIGKDFLDNADTSDFVIFPKSS", "soluble on expression in E. coli": "not soluble"}
{"sequence": "MTVPDAKRLKDLELENSRLKKLLAESLLDIGALKVVTRGKGEPGSGAGGQEMQAQTDISERRACQLFRLSRSVLCHQPRTSVQNTELQAQLVELARASALWLSPPAHSAAACWCADQLQADLPAILSRRLDGEAAEAPPQGRGGVRMPEPAERTELGLVDGFRLRRAQHWATDQMPDGGR", "soluble on expression in E. coli": "not soluble"}
{"sequence": "MTVSPVPSPKGRVLIAGATGFIGQFVATASLDAHRPTYILARPGPRSPSKAKIFKALEDKGAIIVYGLINEQEAMEKILKEHEIDIVVSTVGGESILDQIALVKAMKAVGTIKRFLPSEFGHDVNRADPVEPGLNMYREKRRVRQLVEESGIPFTYICCNSIASWPYYNNIHPSEVLPPTDFFQIYGDGNVKAYFVAGTDIGKFTMKTVDDVRTLNKSVHFRPSCNCLNINELASVWEKKIGRTLPRVTVTEDDLLAAAGENIIPQSVVAAFTHDIFIKGCQVNFSIDGPEDVEVTTLYPEDSFRTVEECFGEYIVKMEEKQPTADSAIANTGPVVGMRQVTATCA", "soluble on expression in E. coli": "soluble"}
{"sequence": "MTVYHFVGIKGTGMSPLAQILHDNGYTVQGSDIEKFIFTQTALEKRNITILPFSAENIKPGMTVIAGNAFPDTHPEIEKAMSEGIPVIRYHKFLGDYMKKFTSVAVTGAHGKTSTTGLLAHVIQNAKPTSFLIGDGTGQGNENSEYFVFEACEYRRHFLSYQPDYAIMTNIDFDHPDYFSSIDDVFDAFQEMALQVNKGIIACGDDEHLPKIHANVPVVYYGTGEENDFQARNIVKSTEGTTFDVFVRNTFYDTFYIPAYGHHNVLNSLAVIALCHYEEIDSSIIKHALKSFGGVKRRFNEKQLGDQVLIDDYAHHPTEIKVTIEAARQKYPDREIVAVFQPHTFTRTQQFLDEFAESLSGADCVYLCDIFGSARENAGKLTIGDLQGKIHNAKLIEEDDTSVLKAHDKAVLIFMGAGDIQKYMRAYENVMA", "soluble on expression in E. coli": "not soluble"}
{"sequence": "MTYLLLDYFDEKFPDEKAVKEMKPFRRHRWFFKEGTTNYSHSERNKLPEGAAYAGHRTPLISGECKVYGCWPNGYDNVGEEEWAKIPTDARQKFKAALNDTAEIVVSGIECRRSFQYIDDKLLSAMDNYSELEKLPVAYSFSATKFYPSLIPFLETRWTATKLDWKNHGQNNLDLSRTHLREITLDGEGLKSVSLPESCRTISFSSTLSPELKVYSPDGGSNLTLKIELEADHVPDVGLPQLEILVLDRAVKLDLLPVTNLYPNLYYLRICGKPGYLSNISSLRNLKTLEVLSLEEIFGFTAEEFPTPGTCPLLNTLWMESIPEEAGKQIKKKYKGKITELDIRKLRKPEWLAENLDNPLRHWDGSEFVPPAKFKKAVVIYRNARRDALVAANQYLIDRDAALLQNRLEQTGKEFVIAFNKLDGKSGFIETEEREDLCAAFQVILDAVDSSVNFLGFTMNHDRIWEIMNEHRDW", "soluble on expression in E. coli": "not soluble"}
{"sequence": "MVDIEPDRVYVFTPDGHAIDLPKNATPLDFAYRVHTEIGHNCRGAKINGRIVPLNYSLQTGEQVEIITSKHGTPSRDWLEHHHHHH", "soluble on expression in E. coli": "not soluble"}
{"sequence": "MVDSYDDSLDGEKSKTQVKRELHALVDLGERLTTLKADVLAKLPLTDALRKALAEAPKHTANIARKRHILFIGKLMRDQDQEAILVLLDQLDASTRQYNERFHNLERWRDRLIAGDDADLEKFVIEYPDADRQQLRSLIRQAQHEVARNKPPATSRKIFKYIRELDELQ", "soluble on expression in E. coli": "soluble"}
{"sequence": "MVEARSRHEFVALQLRQRIMQRQYAVGESLPSESMLCAEFEVSRGPVRQALATLKNEGLIQLSQGKPAVVRSHDITQTLDTFTPFSQWARRTGRVAGSRTLEISRRRVSEPAASALGSAPDDFVVEVLRVRLLDGEPTMIERSTFTDRVGSLLFDFDIDTGSITDYLTSRGVRFESMEHVLDAVAATGVDAENLRIDPGSPLLRERRTSRDQNGDTFEYADDRYRPDLVAFSIVNARTIDPRLPSDDGNGA", "soluble on expression in E. coli": "not soluble"}
{"sequence": "MVEYVNQAHEDITGIARDKSIGTNLRDLTFFRQHNALAEQTLAKIFRGDQAKGEVQFSRTDGSRYWLKYIVSQFITDRGNHYALVSGEENSDEHNYKAELEHHHHHH", "soluble on expression in E. coli": "not soluble"}
{"sequence": "MVGCLVVLLGAARKPARIFNLTPASASRYDSIHLCSLRTSLSCH", "soluble on expression in E. coli": "not soluble"}
{"sequence": "MVGGVEELSIEQLASSISTYKEQLEQNFVCGLEFRIGEEKLNVRQLLSEDPRNSEYADMEKELKEVIALTEEVLATAKQNEISLSDAGVSAEATPGSPDLEGAWEKTGLRNDPIHEGKFPVGTKVQAVFSDDGEWYDATIEAHTANGYFVAYDEWGNKEEVDPDNVRPIEQNAIVEAERLAQATKNALKRKIEKAASSDYQTKTLPAKLKIDPNDPEDVKIAKRKKIHAFKSKARFEQLEVVQNKKQNDWQQFQTTKAKTKKVGFFTGRKKESIFKSPEDPFGKVGVTGSGKGLTDFQKREKHLHLKSGNAEGTDE", "soluble on expression in E. coli": "soluble"}
{"sequence": "MVGIRRNKGHGEATIFTLRELADATNNFSTECLLGRGGFGSVYKAFLNDRQVVAVKQLDLNGLQGNREFLVEVLMLSLLHHPNLVKLFGYCVDGDQRLLIYEYMPLGSLEDRLHDLRPGQEPLDWTTRMKIAADAAAGLEYLHDEAIPAVIYRDIKPSNILLGEGYNAKLSDFGLAKLGPVGDKTHVTTRVMGTHGYCAPEYLSTGKLTIKSDIYSFGVVFLELITGRRALDSNRPPDEQDLVAWARPLFKDQRKFPKMADPSLHGHFPKRGLFQALAIAAMCLQEKAKNRPSIREVAVALSYLASQTHESQNTAARHTLPGPSVPRVLDNQINQDTSLPSQHGVHMPPLAGTDHMVQEVKENCRSSSHRPGRGRVTPNGADRERALAEANVWVEAWRRQEKTSKMR", "soluble on expression in E. coli": "not soluble"}
{"sequence": "MVHDSALPFDALPMPPQGREGFEECPYLDSQWVADTNGQRMTGQGVDTRFDTPACVFWSYPEAPQATVMVRHMPSEEEAIRVVDWAAPIDTTEPAEEPDGWSGGRAGHEEGAVYAVQKGPVAVVVWSNQQQSLKAELMAKEAIARLGL", "soluble on expression in E. coli": "soluble"}
{"sequence": "MVHVKDVLADQLLANANDPSWYMPFSDAVKDLSEREAFWKPNEECNSIAEIVQHLLYWNSTWQTRYKESHVNAVPAIGDNNKSFMLSDNQTFDELREKLLEKLLQWQTLINEEKVESDVVGFPVSAKWWEVLANVTTHNAYHIGQIIYIRKLQQSFDNK", "soluble on expression in E. coli": "not soluble"}
{"sequence": "MVINIRRSRPDEGDKLTAIWCRSVDATHDFLTKAYRKELEEMVRAFLPEAPLWVAVSTEDQPIAFMLLTGDHMDALFVDPDVRGCGVGKLLIEHALSLTPKLTTNVNEQNEQAVGFYQKMGFRVTGRSETDDLGQPYPLLNLMYEQQAEADYD", "soluble on expression in E. coli": "not soluble"}
{"sequence": "MVIRRCEKMEEETWKLKIGMCIQAKDFYSKRTDCSVHRPDVGGGLITEGNGYRVVVHDQCEEPNPFIIATTKQTHFGVTHSYIEFSNSNTGAPENIPDCSKHILISVYCDQEASGLDFHTLKYVESNYLHITVKYDTSCINHLGVNYSFMNECERKLTSIYETDTLTCGAKDIQTRDKYLKTCTNTKFDRSVYKTHMQKSKILHVKTELE", "soluble on expression in E. coli": "not soluble"}
{"sequence": "MVISLKNRNFLKLLDYTPAEIQHLIDLAIELKAAKKAGCEKQTLIGKNIALIFEKTSTRTRCAFEVAAFDQGAQVTYLGPSGSQIGHKESMKDTARVLGRMYDGIEYRGFGQHIVEELGEYAGVPVWNGLTDEFHPTQILADLMTMLEHAPGKTLPELSFAYLGDARNNMGNSLMVGAAKMGMDIRLIAPKSFWPDAALVAQCREIASVTGARITLTESVEDGVHGVDFLYTDVWVSMGEPKEAWAERVSLMTPYQVNQQVVNATGNPDVKFMHCLPAFHNEHTKVGREIEMAYGLKGLEVTEEVFESAGSIVFDEAENRMHTIKAVMVATLGD", "soluble on expression in E. coli": "not soluble"}
